Reference: article PMC2913173 (Journal of molecular biology, 2009)
eCPX = enhanced circularly permuted OmpX display protein

B1: Bak(24–89): eCPX fusion protein comprising helices α1, α2, and α3 of Bak (protein)
chain: EEQVAQDTEEVFRSYVFYRHQQEQEAEGVAAPADPEMVTLPLQPSSTMGQVGRQLAIIGDDINRRY-eCPX
B2: Bak(24–117): construct containing amino acids 24–117 of Bak (helices α1 to α4), eCPX fusion (protein)
chain: EEQVAQDTEEVFRSYVFYRHQQEQEAEGVAAPADPEMVTLPLQPSSTMGQVGRQLAIIGDDINRRYDSEFQTMLQHLQPTAENAYEYFTKIATS
modifications: left off: eCPX (enhanced circularly permuted OmpX display protein), C-terminal, kept

Molecular target: Bcl-xL (Homo sapiens, UniProt Q07817, DEL46-85)
Experiment: Cell surface display equilibrium binding assay with flow cytometry
Conditions: cells displaying Bak–eCPX fusions, biotinylated Bcl-xL and SAPE

Molecule	Binding to Bcl-xL in words (fluorescence of cell population)
B1	fluorescence only slightly above background levels
B2	essentially no binding to Bcl-xL
